Sequences and labels used below:
T1: soluble ECD of human B7-H3 (Homo sapiens, UniProt Q5ZPR3)
T1 construct: His tag (6xHis) (C); made in house
T1 sequence (Q5ZPR3 with tags, fused parts or gaps): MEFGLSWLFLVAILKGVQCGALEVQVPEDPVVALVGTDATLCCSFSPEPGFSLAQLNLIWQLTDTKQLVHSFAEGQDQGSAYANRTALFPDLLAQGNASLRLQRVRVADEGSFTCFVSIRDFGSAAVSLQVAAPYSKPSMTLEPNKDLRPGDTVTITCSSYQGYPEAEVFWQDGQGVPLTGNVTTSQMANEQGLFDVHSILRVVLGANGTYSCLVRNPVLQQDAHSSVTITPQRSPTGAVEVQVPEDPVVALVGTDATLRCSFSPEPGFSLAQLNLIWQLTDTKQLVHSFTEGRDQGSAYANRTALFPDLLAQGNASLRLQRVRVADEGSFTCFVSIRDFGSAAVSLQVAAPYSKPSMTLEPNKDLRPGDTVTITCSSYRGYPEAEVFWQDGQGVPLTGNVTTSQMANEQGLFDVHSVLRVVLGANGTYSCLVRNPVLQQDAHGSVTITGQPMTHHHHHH

B1: Ab16 (antibody, V domains shown)
VH: EVKLLESGGGLVQPGGSLKLSCAASGFDFSRYWMSWVRQAPGKGLEWIGEINPDSSTINYTPSLKDKFIISRDNAKNTLYLQMSKVRSEDTALYYCARPGFGNYIYAMDYWGQGTSVTVSS
VL: DIQMTQTTSSLSASLGDRVTINCRASQDISNFLNWYQQKPDGTVKLLIYYTSRLYLGVPSRFSGSGSGTDYSLTISNLEQEDIATYFCQQGNTLPPTFGGGTKLEIK
B2: Ab17 (antibody, V domains shown)
VH: EVKLVESGGGLVQPGGSLKLSCAASGFTFSSYIMSWVRQTPEKRLEWVASIVSSNITYYPDSMKGRFTISRDNARNILYLQMSSLKSEDTAMYYCARSGTRAWFAYWGQGTLVTVSA
VL: DIVLTQSPASLAVSLGQRATISCRASKSVSTSAYSYMHWYQQKPGQPPKLLIYLASNLESGVPARFSGSGSGTDFTLNIHPVEEEDAATYYCQHSRELPYTFGGGTKLEIK
B3: Ab13 (antibody, V domains shown)
VH: DVQLQESGPDLVKPSQSLSLTCTVTGYSITSGYSWHWIRQFPGNKLEWMGYIHSSGSTNYNPSLKSRISINRDTSKNQFFLQLNSVTTEDTATYYCAGYDDYFEYWGQGTTLTVSS
VL: DIVMTQSQKFMSTSVGDRVSVTCKASQNVGFNVAWYQQKPGQSPKALIYSASYRYSGVPDRFTGSGSGTDFTLTISNVQSEDLAEYFCQQYNSYPFTFGSGTKLEIK
B4: Ab10 (antibody, V domains shown)
VH: DVQLQESGPGLVKPSQSLSLTCTVTGYSITSDYAWNWIRQFPGNRLEWMGHINYSGITNYNPSLKSRISITRDTSKNQFFLQLYSVTTEDTATYFCARRSLFYYYGSSLYAMDYWGQGTSVTVSS
VL: DVVMTQSPFSLPVSLGDQASISCRSSQSLVHSNGNTYLHWYLQKPGQSPKLLIYKVSNRFSGVPDRFSGSGSGTDFTLKISRVEAEDLGVYFCSQSTHVPWTFGGGTKLEIK
B5: Ab2 (antibody, V domains shown)
VH: QVQLQQPGAELVKPGASVKLSCKASGYTFTSYWMHWVKQRPGQGLEWIGMIHPDSGTTNYNEKFRSKATLTVDKSSSTAYMQLSSLTSEDSAVYYCAVYYGSTYWYFDVWGTGTTVTVSS
VL: B4 VL with S7T, F9L, S20Y, S32I, L42R, V99F, W101F, G105S
B6: Ab14 (antibody, V domains shown)
VH: EVKLVESGGGLVKPGGSLKLSCAASGFTFSSYGMSWVRQTPEKRLEWVATISGGGTNTYYPDSVEGRFTISRDNAKNFLYLQMSSLRSEDTALYYCARHYGSQTMDYWGQGTSVTVSS
VL: DIQMTQSPASLSASVGETVTITCRTSGNIHNYLTWYQQKQGKSPQLLVYNAKTLADGVPSRFSGSGSGTQFSLKINSLQPEDFGSYYCQHFWSIMWTFGGGTKLEIK

Where a chain is given by its changes, count along the chain named.

One test deals with soluble ECD of cyno B7-H3. As to the kind of experiment: Biacore T200 SPR binding kinetics, mAb capture. On the set-up: species or system cynomolgus monkey. Particulars: Biacore T200, Fc capture of mAb, B7-H3 ECD as analyte, 1:1 binding model. (SPR reads the build-up and loss of mass on a sensor chip optically.)
Chain of soluble ECD of cyno B7-H3 (as listed by the source): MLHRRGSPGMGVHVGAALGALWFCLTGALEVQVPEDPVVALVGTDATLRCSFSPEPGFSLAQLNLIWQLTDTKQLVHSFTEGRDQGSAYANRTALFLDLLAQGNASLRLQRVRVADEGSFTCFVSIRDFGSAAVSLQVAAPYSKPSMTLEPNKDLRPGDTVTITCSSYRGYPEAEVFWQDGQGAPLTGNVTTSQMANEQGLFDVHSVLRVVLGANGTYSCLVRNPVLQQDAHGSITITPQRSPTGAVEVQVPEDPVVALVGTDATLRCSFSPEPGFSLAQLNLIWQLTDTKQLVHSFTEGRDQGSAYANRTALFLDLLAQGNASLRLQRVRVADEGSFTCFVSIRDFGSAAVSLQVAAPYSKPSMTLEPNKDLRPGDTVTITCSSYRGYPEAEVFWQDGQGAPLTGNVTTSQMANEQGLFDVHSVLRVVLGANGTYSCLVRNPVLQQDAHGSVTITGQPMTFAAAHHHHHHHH
B1: the “cynoB7-H3 ka” value amounted to 750000 M⁻¹ s⁻¹ and the “cynoB7-H3 kd” value is 0.0056 s⁻¹.

In the case of B2, the “cynoB7-H3 ka” value is 510000 M⁻¹ s⁻¹ and the “cynoB7-H3 kd” value was determined as 1e-05 s⁻¹.

B3: the “cynoB7-H3 ka” value came out at 440000 M⁻¹ s⁻¹ and the “cynoB7-H3 kd” value amounted to 0.0037 s⁻¹.

As to B4, the “cynoB7-H3 ka” value turned out to be 200000 M⁻¹ s⁻¹ and the “cynoB7-H3 kd” value came to 0.0042 s⁻¹.

Turning to B5, the “cynoB7-H3 ka” value amounted to 230000 M⁻¹ s⁻¹ and the “cynoB7-H3 kd” value amounted to 0.011 s⁻¹.

B6: the “cynoB7-H3 ka” value is 690000 M⁻¹ s⁻¹ and the “cynoB7-H3 kd” value was 0.003 s⁻¹.

For a further test, the target named is T1, soluble ECD of human B7-H3. Nature of the test: Biacore T200 SPR binding kinetics, mAb capture. Particulars: Biacore T200, Fc capture of mAb, B7-H3 ECD as analyte, 1:1 binding model. The method, then:
The binding affinity of the purified anti-B7-H3 monoclonal antibodies was determined by surface […]. […] The binding kinetics were derived from SPR measurements using a Biacore T200 instrument and a mAb capture approach (as described in the materials and methods below).
Biacore T200 SPR instruments were used to measure the binding kinetics of human B7-H3 (analyte) binding to various mAbs (ligands). The assay format was Fc-based capture via immobilized anti-mouse (Fc) (Pierce 31170) or immobilized anti-human (Fc) (Pierce 31125). A standard amine coupling protocol was employed to immobilize the capture reagents via primary amines to the carboxy-methyl (CM) dextran surface of CM5 sensorchips (Biacore); capture antibodies were coupled to a level of approximately 5000 RU. For binding kinetic measurements the assay buffer was HBS-EP+ (Biacore): 10 mM Hepes, pH7.4, 150 mM NaCl, 3 mM EDTA, 0.05% polysorbate 20. During the assay, all measurements were referenced against the capture surface alone. Each assay cycle consisted of the following steps: 1) Capture of ligand to approximately 50 RU; 2) Analyte injection over both reference and test surface, 240 μL at 80 μL/min, after which the dissociation was monitored for 900 seconds at 80 μL/min; 3) Regeneration of capture surface with low pH glycine. For kinetic determinations analyte injections were 3-point, 9-fold dilution series of 900 nM, 100 nM and 11.11 nM, buffer only injections were included for secondary referencing. Data were processed and fit to a 1:1 binding model using Biacore T200 Evaluation Software to determine the binding kinetic rate constants, ka (on-rate) and kd (off-rate), and the equilibrium dissociation constant (affinity, KD).
Consider B1, for which the “huB7-H3 ka” value amounted to 140000 M⁻¹ s⁻¹ and the “huB7-H3 kd” value was found to be 0.0032 s⁻¹.

On to B2, for which the “huB7-H3 ka” value was 540000 M⁻¹ s⁻¹ and the “huB7-H3 kd” value worked out at 1.9e-05 s⁻¹.

As to B3, the “huB7-H3 ka” value was found to be 330000 M⁻¹ s⁻¹ and the “huB7-H3 kd” value came to 0.0058 s⁻¹.

On to B4, for which the “huB7-H3 ka” value was found to be 41000 M⁻¹ s⁻¹ and the “huB7-H3 kd” value amounted to 0.00019 s⁻¹.

Consider B5, for which the “huB7-H3 ka” value is 120000 M⁻¹ s⁻¹ and the “huB7-H3 kd” value worked out at 0.0029 s⁻¹.

B6: the “huB7-H3 ka” value stood at 110000 M⁻¹ s⁻¹ and the “huB7-H3 kd” value came to 0.0014 s⁻¹.

For the origin of these results see US10640563B2, “Anti-B7-H3 antibodies and antibody drug conjugates” (AbbVie Inc., priority 2016, dated 2020).
